Reference: the DeepSol protein solubility set

Test: soluble on expression in E. coli; label from the status in PepcDB or PDB records

Sequence | soluble on expression in E. coli
MSPEKYLQDWQTSQTIAESISPLIGKLYRQKGIEVVLFGKTLINATTIDILKTHRVARRYTGSPLSLEHTMPIIQALCEMSISSCRVDVGQLATKYWNEHEDTAALNDFLQTALQGARDADSS | not soluble
MAHHHHHHMSSTSTTHPQLLLQQSKVKYLMKVCRPLCQFTQKCNRGSWVERTFGAERKKASSASEDNDLLSMHLPFSSDTAPPCGYSTTEAVRLISLPYHPHVYAYCLFESRLIFERAVLHGAIAPNVKPSQFFVHPISVMRHPEKFKLFFGEERSDVLLRLLVDLLGEYDGDDRSVVQKCRAKGVSNENWVPFLRGLGLCLAMGDIASSQATFVMEDCITGGGADCGLSLPGSYEKRGSVAAELLMEASVELGSLTLANLSLSLYRQFLPEVPLTASKKVTICTTRCERRFLEWNQRCLKTGPRR | not soluble
MLCLGIEGTAEKTGVGIVDEAGNVLSLRGKPLIPEKGGIHPREAAEHHAKWIPRLIAEACRDAGVELGEIGLISFSRGPGLGPALRTVATAARTLALSLDVPIVGVNHCIGHIEIGRLTTGASDPVSLYVSGGNTQVIAFNEGRYRVFGETLDIAVGNMLDQFARESGLGHPGGPVIEQLALKASEYIELPYSVKGMDISFSGLLTAALRKMEAGASLEDLAYSIQETAFSMLVEVTERALAYTEKNQVLLCGGVAVNRRLRDMLREMCQEHHVEFHMPPPEYCGDNGAMIAWLGQLVYKYRGPDALEDTTVVQRYRTDEVDVPWMRESEAGIELPPDILAKGAEANIYRGQWIGRPCIIKERISKGYRIPEIDQKLRSSRTRREARLINQAKGAGVHTPVLFDVDPDGGVMVMEEVRGTPFRDAVEDTELCSRIGEAIGRLHHAGIIHGDLTGSNIIIRGGDVVFIDFGLGRFSDEIEDMGVDLLVLKKSLESTHYALAGECFSRVLEGYGKIIDADIQSKIREIESRGRYTD | soluble
MAHHHHHHMRRVLLFRNRVDFVATLLQQGRLADMLMLQHFTSRTPQKPPAGNAAERNSGGTKVSVGETSRRALLTRCEAVKAKAMSTPCTDWLADAYGSGEWCALSESRDMVRVVASDNDPTRVKLRGTFPVLVQEGSSPASVRLAASKESGEALIVTVPLVQSGEKVRSSAIGGGIRAVTLKEADGSVVSDAATSVDAFAAEQNILSAAVCSGILGKLEEICALHATHTVRYDALLVRNPAVQKRLSQLACARFSLDALSSFVASAAVDEPMPLVESVALRMHAKHALAIGMGSARDIIHGTAMLKASPHRSKPERLIDYPYAQQLFASERYVLSSLGASSAAETMRHFTPLLMQPQTHMPAGVQGPLASLLLGGKGGNVNLAAPHANLRVSAAFLEKDIAAMLQRIQQQKKRADPLFVMAIAQYVAELFANTAVVYRTTASLTHEDDSAPRDWLLTQAFCADSSARRATILCEWDLSSAARKAIGKAADLNGCTTHPVELMNAEPARKPKVPSKSAAASVTQEAN | not soluble
MGSDKIHHHHHHMDSELRKRFNPDGSLLRRQQLRMLELLEVIDVICRKHQIPYWLSSGTLIGAARHKGFIPWDDDLDIEMLRSDYLRLLKVLPQELPDNLALQTNETDPNYIFIYGKLRDKDSHLEETNSYDRIFHYTGIYIDIFPLEKIPYCLAWIGGHMQGQIYNQLNNKNIKESTLYKRIRRIYHFNTRIGFPILRFIAKLFPGKELRHSFGTAYFKPRYTDDIFPLTEMEFEGKMFPVPRQTDAVLRKIYGDYMQLPDLENIHPHYNKLEFYK | not soluble
MNIYKLIGRNLEITDAIRDYVEKKLARLDRYQDGELMAKVVLSLAGSPHVEKKARAEIQVDLPGGLVRVEEEDADLYAAIDRAVDRLETQVKRFRERRYVGKRHSYQGPPPPEVRDLEALRKPEEEEGPRIVRVKRFEMKPMDPEEAAFQMEALGHSFFVFRNAKTDEINVIYRRKDGNYGLIEPA | soluble
MGSDKIHHHHHHMAAPIIHGGGITEAAARFGGTPEDWLDLSTGINPCPAALPEIDARVWHRLPDRHVEEAARAAASRYYRTGELMPLPVPGTQAAIQLLPRIAGQRKRVAIFAPTYGEYARVLKAAGLVVDSVTCAGDLQAAHGLAVVVNPNNPTGRRFPPEEILAMAEAMRAHGGLLVVDEAFGDLEPDASVAGHVAANDNLVVFRSFGKYFGLAGLRLGFVVASRTVEDSFRDWLGPWSVSGPALAISAKLMEGDTLGIKVGIAERKAALDAVLFGAGLDVVGGTGLFTLVEHERAYDLHAALCEAHILTRKFDYDPRWLRIGLSPNAQGDRRLAEALNRMGV | not soluble
MVSMLLVGRIGKSVGLNGGLRLHLESDFPECLKKGVKVSVAPLNAFSCVSSFKEYIIHSYEHAKNLLFLETIQTPEKAKELTNLGLFMSEAESKKLCVLKEGEFFYCDLVGLSVVEENEILGKVIEIQRISQTDYFLVETTLNLVEKGLAKIFLIPYRDFYIQEILLQDKKITTHNAKTLLENSLEHHHHHH | soluble
MSTLQAAAHGRIVQLSRIRKEIADLAKNKRRFIKDFRKIEKCKDIFQFKIIGDGVLYKNMIFTLTLDVNVEYPFKPPYLKFCHNVYHPNVDPVTCELCSPMLLQENWKPETTMEDVLLNLIVLLNEPDLSRPVNIDAAHDYIHNKVEFVKKSTELAKKWN | not soluble
MSLNEEQLSKRLEKVASYITKNERIADIGSDHAYLPCFAVKNQTASFAIAGEVVDGPFQSAQKQVRSSGLTEQIDVRKGNGLAVIEKKDAIDTIVIAGMGGTLIRTILEEGAAKLAGVTKLILQPNIAAWQLREWSEQNNWLITSEAILREDNKVYEIMVLAPSEKPVTWTKQEIFFGPCLLKEQSAIFKSKWRHEANTWQNIIQTISNNQPVSTENQAKIRELEHKIALVEDVLKEGHHHHHH | soluble
RDSSDDWEIPDGQITVGQRIGSGSFGTVYKGKWHGDVAVKMLNVTAPTPQQLQAFKNEVGVLRKTRHVNILLFMGYSTKPQLAIVTQWCEGSSLYHHLHASETKFEMKKLIDIARQTARGMDYLHAKSIIHRDLKSNNIFLHEDNTVKIGDFGLATVKSRWSGSHQFEQLSGSILWMAPEVIRMQDSNPYSFQSDVYAFGIVLYELMTGQLPYSNINNRDQIIEMVGRGSLSPDLSKVRSNCPKRMKRLMAECLKKKRDERPSFPRILAEIEELARELSG | soluble
MIKVLLLDVDGTLLSFETHKVSQSSIDALKKVHDSGIKIVIATGRAASDLHEIDAVPYDGVIALNGAECVLRDGSVIRKVAIPAQDFRKSMELAREFDFAVALELNEGVFVNRLTPTVEQIAGIVEHPVPPVVDIEEMFERKECCQLCFYFDEEAEQKVMPLLSGLSATRWHPLFADVNVAGTSKATGLSLFADYYRVKVSEIMACGDGGNDIPMLKAAGIGVAMGNASEKVQSVADFVTDTVDNSGLYKALKHFGVI | not soluble
MGSDKIHHHHHHMRHTILFIIDGLPGGGAERVVITLAGEMAARGHQVTIASLQASLDYAIPAGVDYLLVEDRYRGPLRRQTEIRRRARQLDGALRRHFAGRRIDLAVSNLPKTDRIVAACPYLEQAWLCLHCAIQAGQLAERSGIRRWLKKRQLVRTYSGRKLITVCQALQRDVLDCGIRPARMEAIYNPFDLDWIRRRAAQPCPMDGEDFILHVGRFNHQKRHDRLLEAFKLSGYPGKLALLGQGGQAELSAIQVQAERLGVADRLVVAGFTDNPYAYMRAARALVLSSDYEGFGNVLVEALACGTPVASTNCPEGPAEILTGPLSIGLSELNGQALADAIKRVLASRPLAGPEQLAAFAQDAVVERYLALVNQ | not soluble
STGKKPKHHVLSHDIIPASKPIAEKLQIQPESPVVELKRILYNDDQPLTFEVTHYPLDLFPGIDTFIADGVSMHDILKQQYKVVPTHNTKLLNVVYAQQEESKYLDCDIGDALFEIDKTAFTSNDQPIYCSLFLMHTNRVT | not soluble
MGSDKIHHHHHHMDAVQLKSFVAVAHEGNLTQAAKRLFLSQPAVSAQIKALEEYVGTPLFRRTGKGMVLTRAGEILLPEAESLLQYKHKLEHFAKTLAGDYSEETSLGIIHPIDSAKLVALTDNIGQTAPKTRLHIQYGMSGEILSRIQHKTLHGGFILGNAAQRGIRSVFLQNLTYALICPQSQYPHLTRSLPQSLQECVWIEMSGVSGSRKHLHQFWRSNRLSPKKQILCDYPQTIIDLVAGGIGVAMVPGNKAEAAAKEGAGVAIIESCRHSMPLNFIYAEEYEDNPHVSLLLECIEKVWGVQAVQPPVVSDN | not soluble
QVINTFDGVADYLQTYHKLPDNYITKSEAQALGWVASKGNLADVAPGKSIGGDIFSNREGKLPGKSGRTWREADINYTSGFRNSDRILYSSDWLIYKTTDAYQTFTKIRSSSMGVCPKILKKCRRDSDCLAGCVCGPNGFCGS | soluble
MAHHHHHHMTSAYRIRDAAPADAGIMVRMLMSLASETENVELDEGEVRRGVTTLFEQGSLGRLYVAEEVPKGDTNIKGPSDGNRSSPQIVGVMTVTYEWSDWRGKLFLWIQSVYIIPSKRKQGIFQKFYDHLIRIMAEDPKYCGLRLAVNSKNEKAIRAYKQVGMKREKYQLMGRMKSKY | soluble
MKNFHPTGNCPVRDVISRLGDKWSMLVLITLNANGTMRFSDIHKTIEDISQRMLTVTLRTLESDGLIERKIYAEVPPRVEYYLTDTGGTLIPHIEGLVGWALENMDTILEHRKSN | not soluble
MGSDKIHHHHHHMMELLNVNNLKVEFHRVEGIVKAVDGISYKLNKGESLGIVGESGSGKSVSVLSLLRLINRNGRIVDGEAIFLGKDLLKLNKEELRNIRGKDISIIFQNPMTSLNPIIRVGIQVMEPIIWHRLMKNEEARERAIELLERVGIPESPKRFLNYPFQFSGGMRQRVMIAMALACHPKLLIADEPTTALDVTIQAQIMELLQELKEEYGMSVIFITHDLSVATNFCDRIITMYAGKIVEEAPVEEILKTPLHPYTKGLLNSTLEIGSRGKKLVPIPGNPPNPTKHPSGCKFHPRCSFAMEICQREEPPLVNISENHRVACHLIKGESK | not soluble
MEALRLEGVSKRYGRRPVLEGVSLSVRPGEVYALAGPNGSGKTTLIRLATGLAFPTKGRAFLLGEDVHKSPAARRHLGAVVEAPAAFYPYLTGRENLRMHARLSGVEDEARIGEVLARLKLLAVADQKVEGYSLGQRQRLGLAAAILHRPKVLVLDEPTSGLDPEGVELVHRLLQELAREGVAILLSTHHLQEVARYAHRVGILGGGRLLDEVVLSGKEAYRLEAEPLEGALALLKTLPQVASARLQGRSVVFEGEPEAALRALLAEGYRVRALAPHRFDLLDYYQERVRHV | soluble
MSLSRFYHNLKFRSIPTTCATAQMCADRDEMQDSLICIPHFAAPEHYLFAGIDGHSGKYVSYKFSIRFPEIFYEMLSRDSGALNIIDALYQSFDTIQNEFANDPNVTDGAVATVIFMTPTKIYTAQCGDCRAVYITSSGVVQLAPEHKTSDRIEQMRIRSQGGFVSENLRVCGLLVARSVGDVKNKPIITHVPDITCFDRRDDEEYLVVATDGVWDEISNLKIHDILHSNRRVYRTSELSGLVKDIACVSCISGQHPDNIGIVLCRFEGHHHHHH | soluble
MGSDKIHHHHHHMEVNRLSALTPPMGWNSWDCYGASVTEEEVLGNAEYMANHLKKYGWEYIVVDIQWYEPTANSSAYNPFAPLCMDEYGRLLPATNRFPSAKNGAGFKPLSDAIHDLGLKFGIHIMRGIPRQAVYENSPVLGSTKTAREIAHTNSICPWNTDMYGVDPTKEGAQSYYNSLFELYAQWGVDFVKVDDIAASRLYDTHLEEIKMIQRAIQACGRPMVLSLSPGPAPIKYAHHFKTNANMWRITDDFWDDWSLLYQMFERCEVWEKHIGTGHWPDCGMLPLGHIGIRSVDGPGGDRWTRFTKDEQLTMMNLWAICHSPLMFGGELRDNDEWTLSLLTNEGILSINQKSVLNRFVYREEDKVAWAANGRNGEAYVALFNLHDQQKTLQFRLDMVGIMETVQLFNVWDRSFLQSLAPSESFQIELKPHQSMMLKLSPDR | not soluble
